Source: patent US11732048B2, “Anti-axl antagonistic antibodies” (BERGEN TEKNOLOGIOVERFØRING AS, priority 2016, dated 2023)
“Also recorded” adds a separate entry of the source.

Key:
Mer (rhMer-Fc chimera) = molecular target: T1, Mer (rhMer-Fc chimera) (Homo sapiens, UniProt Q12866); test: Biacore binding analysis on immobilised human Mer; details: 10 μg/mL in HBS-EP, 25° C.
T1 construct: Soluble recombinant antigens corresponding to the extracellular domains of members of the human TAM receptor family; Fc; purchased R&D Systems 891-MR
T1 sequence (Q12866 21-505 limits assumed): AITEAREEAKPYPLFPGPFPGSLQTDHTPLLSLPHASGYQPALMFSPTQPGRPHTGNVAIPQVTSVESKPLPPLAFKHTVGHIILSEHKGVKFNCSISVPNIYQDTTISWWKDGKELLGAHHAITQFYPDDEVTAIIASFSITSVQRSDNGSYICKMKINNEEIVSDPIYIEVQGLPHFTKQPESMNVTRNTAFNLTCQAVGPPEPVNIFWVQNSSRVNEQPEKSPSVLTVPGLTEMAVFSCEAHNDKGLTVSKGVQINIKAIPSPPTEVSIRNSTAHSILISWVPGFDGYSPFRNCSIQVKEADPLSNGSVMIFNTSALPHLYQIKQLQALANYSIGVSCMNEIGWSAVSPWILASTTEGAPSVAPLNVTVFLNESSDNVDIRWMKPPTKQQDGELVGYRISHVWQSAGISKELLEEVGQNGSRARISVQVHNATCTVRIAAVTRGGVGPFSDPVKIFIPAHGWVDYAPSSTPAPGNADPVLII
Protocol: All binding experiments were performed using Biacore 3000 instrument (GE Healthcare) at 25° C. Soluble recombinant antigens corresponding to the extracellular domains of members of the human TAM receptor family, Axl (rhAxl-Fc chimera; R&D Systems, Cat. no. 154-AL), Mer (rhMer-Fc chimera; R&D Systems, Cat. no. 891-MR) and Tyro3 (rhTyro3/Dtk-Fc chimera; R&D Systems, Cat. no. 859-DK) were immobilized on the surface of CM5 sensor chip using amine coupling at the surface density of 393.0, 303.6 and 364.0 resonance units (RU), respectively. The Biacore run was performed in an automatic mode using Binding analysis wizard. Samples containing MAb 10G5 at concentration 10 μg/mL in HBS-EP buffer (GE Healthcare) were injected over the surfaces with immobilized antigens at flow rate of 30 μL/min for 3 min (association) followed by 5 min dissociation.

[1] = molecular target: T2, rhAxl-Fc (binding of Gas6 / MAB154) (Homo sapiens, UniProt P30530); test: Biacore competitive binding study, MAb 10G5 as first sample (Example 6); details: rhAxl-Fc saturated with 10G5 (160 nM), second sample 25 μg/mL
T2 construct: Fc
Protocol: A competitive binding study was performed using Biacore 3000 instrument (GE Healthcare) and Binding Analysis wizard with several cycles of two samples injection. As a first sample, a saturating concentration of MAb 10G5 (160 nM or 24 μg/mL) was injected over the surface of a CM5 sensor chip coated with rhAxl-Fc (using amine coupling) for 3 min at flow rate of 30 μL/min followed by 2.5 min stabilization (HBS-EP buffer alone) before the injection of the second sample. The following second samples were used: recombinant human (rh) Gas6 (R&D Systems, Cat. no. 885-GS), recombinant mouse (rm) Gas6 (R&D Systems, Cat. no. 986-GS/CF) and a panel of anti-Axl antibodies, such as MAB154 (R&D Systems, Cat. no. MAB154), and 10G5; all at concentration 25 μg/mL. The second sample was injected for 3 min, followed by 2.5 min stabilization (buffer alone) and regeneration of the surface by 30 sec injection of a regeneration solution (10 mM HCl, 1 M NaCl) at flow rate 50 μL/min.

[2] = molecular target: T3, Axl receptor protein in MBA-MD-231 cells (Homo sapiens, UniProt P30530); test: Western blot of Axl receptor protein after antibody treatment; type: cell-based; details: 100 μg/mL, 20 hrs, versus irrelevant IgG or MAb #3
T3 construct: The expression of Axl receptor protein in MBA-MD-231 cells treated with different antibodies was examined by Western blot analysis; endogenous in cells; host or cells: MDA-MB-231 (printed 'MBA-MD-231') human breast carcinoma cells
Protocol: The expression of Axl receptor protein in MBA-MD-231 cells treated with different antibodies was examined by Western blot analysis. The cells were seeded in a 6-well plate at density of 5×10^5 cells per well and cultured overnight before treatment initiation. The cells were treated for 20 hrs in the presence of isotype control (mouse IgG2b), anti-Axl antibodies (10G5 and MAb #3) at concentrations of 100 μg/mL or multikinase inhibitor Foretinib (targets Met, Ron, Axl, Tie-2, and VEGFR2) at a concentration of 0.5 μM followed by harvesting by centrifugation at 1,200 rpm for 5 min and washing with sterile PBS. The cells were collected by centrifugation and resuspended in NP40-lysis buffer followed by 30 min incubation on ice. The cell lysates were cleared by centrifugation (12,000 rpm, 4° C., 5 min) and the protein concentrations were determined using BCA protein assay. The cell lysate samples comprising 35 μg of total protein were denatured in presence of the reducing agent (Life Technologies) and loaded into the wells of NuPAGE 10% Bis-Tris polyacrylamide (PAA) gel, 1.0 mm×12 well (Invitrogen). The electrophoresis was performed using Bis-Tris SDS running buffer under the recommended conditions (Life Technologies) and the proteins were transfer on PVDF membrane, as described for 2 gels in a manual for XCell II™ Blot Module (Invitrogen) using the transfer buffer with 20% methanol. […]

Binding to recombinant human Mer (Mer (rhMer-Fc chimera)): no significant binding
B1: murine 10G5: mouse monoclonal anti-human Axl antibody from hybridoma WR-10G5-E5; VH SEQ ID NO: 28, VL SEQ ID NO: 29 (antibody, listed as Mus musculus, V domains shown)
VH: QVQLQQSGAELVRPGASVKLSCKASGYSFTDFYINWVRQRPGQGLEWIARIFPGGDNTYYNEKFKGKATLTAEESSSTAYIQLSSLTSEDSAVYFCARRGLYYAMDYWGQGISVTVSS
VL: DVLMTQTPLSLPVSLGDQASISCRSSQSLVHSNGIPYLHWYLQKPGQSPKLLIYRVSNRFSGVPDRFSGSGSGTDFTLKISRVEAEDLGVYFCSQGTHVPPTFGGGTKLEIK
modifications: (1)..(118) Mus musculus 10G5 VH domain; (1)..(112) Mus musculus 10G5 VL domain
Competition with MAB154 for Axl binding [1]: did no inhibit; also recorded: did not compete
Inhibition of Gas6 (human and murine) binding to rhAxl [1]: cannot be bound; also recorded: inhibited
Axl receptor protein level [2]: significant reduction in the amount of Axl receptor protein
